Assay results: patent US20210363269A1 (ALX ONCOLOGY, published 2021)

Key:
Test in all cases: SPR, Langmuir fit
[1] = target: T1, human SIRP-α v2 D1 domain (human)
T1 construct: also called human v2
Outline: (§1)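 Antibody clones in scFv-Fc format were captured from pre-filtered culture media onto anti-human IgG Fc, amine-coupled (about 4000 RU) on a GLC chip of a ProteOn XPR36 instrument. SIRP analytes were flowed in PBS pH 7.4 with 0.01% Tween-20 at 25° C. Data were double-referenced against interspot and buffer-blank responses. Dissociation rate constants (koff) were derived by fitting a 1:1 Langmuir model.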

[2] = target: T2, high affinity SIRP-α D1 variant CV1-3
T2 chain: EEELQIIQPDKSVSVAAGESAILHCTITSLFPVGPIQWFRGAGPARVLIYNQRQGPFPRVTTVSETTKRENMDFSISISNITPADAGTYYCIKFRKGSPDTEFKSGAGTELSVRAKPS
Outline: as §1

[3] = target: T3, cynomolgus SIRP-α D1 domain (cyno2) (cynomolgus monkey, UniProt Q5TFQ8 30-148 (human entry), limits assumed)
T3 chain: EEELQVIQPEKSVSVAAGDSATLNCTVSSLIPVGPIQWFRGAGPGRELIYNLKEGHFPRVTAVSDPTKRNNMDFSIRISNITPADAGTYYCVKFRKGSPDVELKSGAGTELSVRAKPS
Outline: as §1

[4] = target: T4, mouse 129 SIRP-α D1 domain (mouse (129 strain), UniProt P97797 32-150)
T4 construct: also called m129
T4 chain: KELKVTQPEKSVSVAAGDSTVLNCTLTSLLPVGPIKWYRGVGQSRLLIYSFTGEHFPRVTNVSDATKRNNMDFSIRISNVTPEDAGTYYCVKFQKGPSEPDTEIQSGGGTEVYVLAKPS
Outline: as §1

human SIRPβ isoform 1 = target: T5, human SIRPβ isoform 1 (human, UniProt O00241 30-148)
T5 construct: also called SIRPb; sirpb1
T5 sequence (O00241 30-148 limits assumed): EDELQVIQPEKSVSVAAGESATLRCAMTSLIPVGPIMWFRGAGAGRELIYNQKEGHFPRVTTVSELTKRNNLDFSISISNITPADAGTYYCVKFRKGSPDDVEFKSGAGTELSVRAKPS
Outline: as §1

[5] = target: T6, NOD mouse SIRP-α D1 domain (mouse (NOD strain))
T6 chain: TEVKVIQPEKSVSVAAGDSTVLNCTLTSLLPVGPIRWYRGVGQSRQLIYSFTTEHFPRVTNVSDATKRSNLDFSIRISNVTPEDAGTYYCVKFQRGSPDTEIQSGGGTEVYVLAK
Outline: as §1

human SIRPγ isoform 1 = target: T7, human SIRPγ isoform 1 (human, UniProt Q9P1W8 29-147)
T7 construct: also called SIRPg; sirpg
T7 sequence (Q9P1W8 29-147 limits assumed): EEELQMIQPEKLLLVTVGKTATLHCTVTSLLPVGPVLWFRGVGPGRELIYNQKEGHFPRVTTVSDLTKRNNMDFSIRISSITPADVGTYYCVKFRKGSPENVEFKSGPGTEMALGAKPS
Outline: as §1

[6] = target: T8, C57BL/6 mouse SIRP-α D1 domain (mouse (C57BL/6 strain), UniProt P97797 32-148)
T8 sequence: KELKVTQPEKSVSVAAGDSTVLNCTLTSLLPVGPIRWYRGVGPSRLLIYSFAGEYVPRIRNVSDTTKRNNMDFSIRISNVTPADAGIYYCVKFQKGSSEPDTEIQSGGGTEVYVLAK
Outline: as §1

[7] = target: T9, cynomolgus SIRP-α D1 domain (cyno1) (cynomolgus monkey, UniProt Q5TFQ8 30-148 (human entry), limits assumed)
T9 chain: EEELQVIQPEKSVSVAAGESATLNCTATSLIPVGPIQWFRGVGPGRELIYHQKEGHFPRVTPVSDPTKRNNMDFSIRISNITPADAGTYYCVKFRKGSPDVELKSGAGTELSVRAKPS
Outline: as §1

[8] = target: T10, human SIRP-α v1 D1 domain (human, UniProt P78324 31-149)
T10 construct: also called human v1
T10 sequence (P78324 31-149 limits assumed): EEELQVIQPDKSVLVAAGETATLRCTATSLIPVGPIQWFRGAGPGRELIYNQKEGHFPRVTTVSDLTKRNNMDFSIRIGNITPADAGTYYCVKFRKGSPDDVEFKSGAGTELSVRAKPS
Outline: as §1

T1 sequence (chain, as listed by the source limits assumed): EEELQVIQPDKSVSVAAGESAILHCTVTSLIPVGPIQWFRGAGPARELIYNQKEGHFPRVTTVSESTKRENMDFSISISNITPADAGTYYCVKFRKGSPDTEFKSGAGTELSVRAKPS

B1: S201 (scFv, V domains shown)
VH: DVQLVESGGAVVRPGETLRLSCTASGFTFSSYAMSWVRQAPGKGLEWVSGISASGSDTYYADSVKGRSTISRDNSKNTLYLRMSSLTAEDTAVYYCARETWNHLFDYWGLGTLVTVSS
VL: ALTQPASVSANPGETVKITCSGGGTSSYYGWYQQKSPGSAPVTLIHSDDKRPSDIPSRFSGSASGSTATLTITGVQVEDEAVYYCGGYDYTTYVNTFGAGTTLTVL
- koff [1]: 4.27e-05 s⁻¹
- koff [2]: 8.32e-05 s⁻¹
- koff [3]: 0.000522 s⁻¹
- koff [4]: 0.000818 s⁻¹
- koff (human SIRPβ isoform 1): 0.0041 s⁻¹
- koff [5]: 0.00215 s⁻¹
- koff (human SIRPγ isoform 1): 0.000185 s⁻¹
- koff [6]: 0.00111 s⁻¹
- koff [7]: 0.000636 s⁻¹
- koff [8]: 3.46e-05 s⁻¹

B2: S206 (scFv, V domains shown)
VH: DVQLVESGGAVVRPGETLRLSCTASGFTFSSYAMSWVRQAPGKGLEWVSGISASGSDTYYADSVKGRSTISRDNSKNTLYLRMSSLTAEDTAVYYCARETWNHLFDYWGLGTLVTLSS
VL: ALTQPASVSANPGETVKITCSGGGTSSYYGWYQQKSPGSAPVTLIHSDDKRPSDIPSRFSGSASGSTATLTITGVQAEDEAVYYCGGYDYTTYVNTFGAGTTLTVL
- koff [1]: 3.6e-05 s⁻¹
- koff [2]: 8.22e-05 s⁻¹
- koff [3]: 0.000518 s⁻¹
- koff [4]: 0.000901 s⁻¹
- koff (human SIRPβ isoform 1): 0.00437 s⁻¹
- koff [5]: 0.00223 s⁻¹
- koff (human SIRPγ isoform 1): 0.000192 s⁻¹
- koff [6]: 0.00157 s⁻¹
- koff [7]: 0.000624 s⁻¹
- koff [8]: 3.5e-05 s⁻¹

B3: S3 (scFv, V domains shown)
VH: AVTLDESGGGLQTPGGALSLVCKASGFIFSDYGMNWVRQAPGKGLEFVAQITSGSRTYYGAAVKGRATISRDNRQSTVKLQLNNLRAEDTGIYFCARDFGSGVGSIDAWGNGTEVIVSS
VL: ALTQPASVSANLGGTVKITCSGSRGRYGWYQQRSPGSAPVTVIYRDNQRPSNIPSRFSSSTSGSTSTLTITGVQADDESVYFCGSYDGSIDIFGAGTTLTVL
notes: also called clone 3; scFv-Fc form of AB3
- koff [1]: 0.000276 s⁻¹
- koff [2]: 0.000394 s⁻¹
- koff [3]: 0.00174 s⁻¹
- koff [4]: 0.000655 s⁻¹
- koff (human SIRPβ isoform 1): 0.00192 s⁻¹
- koff [5]: 0.00119 s⁻¹
- koff (human SIRPγ isoform 1): 0.000162 s⁻¹
- koff [6]: 0.00197 s⁻¹
- koff [7]: 0.00218 s⁻¹
- koff [8]: 0.00041 s⁻¹

B4: S202 (scFv, V domains shown)
VH: DVQLVESGGGVVRPGESLRLSCAASGFTFSSYAMSWVRQAPGKGLEWLAGISAGGSDTYYIDSVKGRFTISRDNSKNSLYLQMNSLTAEDTAVYYCARETWNHLFDYWGLGTLVTVSS
VL: ALTQPASVSANPGETVKITCSGGGYYSTYYGWYQQRSPGSAPVTVIHSDDKRPSDIPSRFSGSASGSAATLTITGVRVEDEAVYYCAGYDGRTYLNTFGAGTTLTVL
- koff [1]: 5.4e-05 s⁻¹
- koff [2]: 6.86e-05 s⁻¹
- koff [3]: 0.00012 s⁻¹
- koff [4]: 4.58e-05 s⁻¹
- koff (human SIRPβ isoform 1): 0.00205 s⁻¹
- koff [5]: 0.000509 s⁻¹
- koff (human SIRPγ isoform 1): 4.44e-05 s⁻¹
- koff [6]: 0.00063 s⁻¹
- koff [7]: 0.000113 s⁻¹
- koff [8]: 3.75e-05 s⁻¹

B5: S24 (scFv, V domains shown)
VH: DVQLVESGGGVVRPGESLRLSCAASGFTFSSNAMSWVRQAPGKGLEWLAGISAGGSDTYYPASVKGRFTISRDNPKNTLYLQMNTLTAEDTAVYYCARETWNHLFDYWGLGTLVTVSS
VL: ALTQPASVSANPGETVKIACSGGSYYSYYYGWYQQKSPGSALVTVIYSDDKRPSGIPSRFSGSASGSTATLTITGVRAEDEAVYYCGGYDYSSYTNDFGAGTTLTVL
notes: also called clone 24
- koff [1]: 0.000317 s⁻¹
- koff [2]: 0.000216 s⁻¹
- koff [3]: 0.000334 s⁻¹
- koff [4]: 0.000402 s⁻¹
- koff (human SIRPβ isoform 1): 0.000194 s⁻¹
- koff [5]: 0.00386 s⁻¹
- koff (human SIRPγ isoform 1): 0.000197 s⁻¹
- koff [6]: 0.00126 s⁻¹
- koff [7]: 0.000382 s⁻¹
- koff [8]: 0.000257 s⁻¹

B6: S22 (scFv, V domains shown)
VH: DVQLVESGGGVVRPGESLRLSCAASGFTFSSYAMSWVRQAPGKGLEWLAGISAGGSDTYYIDSVKGRFTISRRQFQEQSLSPNEPALTAEDTAVYYCARETWNHLFDYWGLGTLVTVSS
VL: ALTQPASVSANPGETVKITCSGGDYYSTYYGWYQQKSPGSAPVTVIHSDDKRPSDIPSRFSGSASGSAATLTIAGVRVEDEAVYFCGAYDGRTYINTFGAGTTLTVL
notes: also called clone 22
- koff [1]: 0.000146 s⁻¹
- koff [2]: 0.000135 s⁻¹
- koff [3]: 0.000177 s⁻¹
- koff [4]: 0.000153 s⁻¹
- koff (human SIRPβ isoform 1): 0.000138 s⁻¹
- koff [5]: 0.000583 s⁻¹
- koff (human SIRPγ isoform 1): 0.000108 s⁻¹
- koff [6]: 0.000736 s⁻¹
- koff [7]: 0.000177 s⁻¹
- koff [8]: 0.000121 s⁻¹

B7: S21 (scFv, V domains shown)
VH: DVQLVESGGGVVRPGESLRLSCAASGFTFSSNAMSWVRQAPGKGLEWLAGISAGGSDTYYPASVKGRFTISRDNSKNTLYLQMNTLTAEDTAVYYCARETWNHLFDYWGLGTLVTVSS
VL: ALTQPASVSANPGETVKIACSGGDYYSYYYGWYQQKAPGSALVTVIYSDDKRPSDIPSRFSGSASGSTATLTITGVRAEDEAVYYCGGYDYSTYANAFGAGTTLTVL
notes: also called clone 21; scFv-Fc form of AB21
- koff [1]: 0.000207 s⁻¹
- koff [2]: 0.000195 s⁻¹
- koff [3]: 0.000252 s⁻¹
- koff [4]: 0.000281 s⁻¹
- koff (human SIRPβ isoform 1): 0.00019 s⁻¹
- koff [5]: 0.00264 s⁻¹
- koff (human SIRPγ isoform 1): 0.000184 s⁻¹
- koff [6]: 0.000806 s⁻¹
- koff [7]: 0.000233 s⁻¹
- koff [8]: 0.00018 s⁻¹

B8: S25 (scFv, V domains shown)
VH: DVQLVESGGGVVRPGESLRLSCEASGFTFSSNAMSWVRQAPGKGLEWVAGISSGSDTYYGDSVKGRLTISRDNSKNILYLQMNSLTAEDTAVYYCARETWNHLFDYWGLGTLVTVSS
VL: ALTQPASVSANPGETVEITCSGGSYSSYYYAWYQQKSPGSAPVTLIYSDDKRPSNIPSRFSGSASGSTATLTITGVRAEDEAVYFCGGYDQSSYTNPFGAGTTLTVL
notes: also called clone 25; scFv-Fc form of AB25
- koff [1]: 0.000209 s⁻¹
- koff [2]: 0.00014 s⁻¹
- koff [3]: 0.000212 s⁻¹
- koff [4]: 0.000133 s⁻¹
- koff (human SIRPβ isoform 1): 0.000171 s⁻¹
- koff [5]: 0.000779 s⁻¹
- koff (human SIRPγ isoform 1): 0.000141 s⁻¹
- koff [6]: 0.00029 s⁻¹
- koff [7]: 0.000219 s⁻¹
- koff [8]: 0.000112 s⁻¹

B9: S28 (scFv, V domains shown)
VH: DVQLVESGGGVVRPGESLRLSCAASGFSFSSNAMSWVRQAPGKGLEWVAGISASGDTYYSGSMKGRFTISRDNSKNTLYLQMNSLTAEDTAVYYCARETWNHLFDYWGLGTLVTVSS
VL: ALTQPASVSANPGETVKITCSGGSDSYYYGWHQQKSPGSAPVTVIYSDDQRPPDIPSRFSGSASGSTTTLTITGVRAEDEAVYYCGGYDYSTYTNTFGAGTTLTVL
notes: also called clone 28
- koff [1]: 1.47e-05 s⁻¹
- koff [2]: 6.59e-05 s⁻¹
- koff [3]: 0.000132 s⁻¹
- koff [4]: 0.000306 s⁻¹
- koff (human SIRPβ isoform 1): 6.29e-05 s⁻¹
- koff [5]: 0.000616 s⁻¹
- koff (human SIRPγ isoform 1): 3.27e-05 s⁻¹
- koff [6]: 0.00186 s⁻¹
- koff [7]: 0.000115 s⁻¹
- koff [8]: 2.11e-05 s⁻¹

B10: S73 (scFv, V domains shown)
VH: DVQLVESGGGVVRPGESLRLSCEASGFTFSSNAMSWARQAPGKGLEWVAGISSGSDTYYGDSVKGRLTISRDNSKNILYLQMNSLTAEDTAVYYCARETWNHLFDYWGLGTLVTVSS
VL: ALTQPASVSANPGETVKITCSGGIYSSYYYAWYQQKSPGSAPVTLIYSDDKRPSNIPSRFSGSASGSTATLTITGVRAEDEAVYFCGGYDQSSYTNPFGAGTTLTVL
notes: also called clone 73
- koff [1]: 7.49e-05 s⁻¹
- koff [2]: 5.28e-05 s⁻¹
- koff [3]: 0.000119 s⁻¹
- koff [4]: 0.000164 s⁻¹
- koff (human SIRPβ isoform 1): 0.000108 s⁻¹
- koff [5]: 0.00148 s⁻¹
- koff (human SIRPγ isoform 1): 7.3e-05 s⁻¹
- koff [6]: 0.000373 s⁻¹
- koff [7]: 0.000127 s⁻¹
- koff [8]: 1.9e-05 s⁻¹
